Measurements from patent US20230174669A1 (ALIADA THERAPEUTICS, published 2023).

T1: human CD98hc (human, UniProt P08195 105-529)
T1 construct: Soluble protein flowed over captured tripod mAbs in SPR; also called huCD98hc; human CD98 heavy chain
T1 sequence: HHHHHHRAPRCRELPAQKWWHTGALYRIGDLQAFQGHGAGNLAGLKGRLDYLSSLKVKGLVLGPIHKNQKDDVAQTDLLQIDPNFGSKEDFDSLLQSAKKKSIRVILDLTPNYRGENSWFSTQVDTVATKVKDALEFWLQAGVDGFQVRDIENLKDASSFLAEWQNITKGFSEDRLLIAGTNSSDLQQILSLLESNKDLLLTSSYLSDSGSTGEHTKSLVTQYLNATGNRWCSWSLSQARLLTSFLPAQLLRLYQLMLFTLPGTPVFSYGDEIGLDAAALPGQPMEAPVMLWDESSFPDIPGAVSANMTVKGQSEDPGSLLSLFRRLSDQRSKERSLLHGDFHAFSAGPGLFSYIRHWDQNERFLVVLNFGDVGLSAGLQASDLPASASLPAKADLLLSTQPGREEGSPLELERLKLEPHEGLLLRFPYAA


Biological target: T1, human CD98hc
Assay: SPR ProteOn, anti-Tau tripod mAb captured by anti-Fc, huCD98hc flowed

| Binder | Kd | koff | kon |
| --- | --- | --- | --- |
| BBBB1067 (bispecific antibody, also called tripod mAb Anti-Tau IgG1 AAS YTE with C98hc4) heavy 1: EVQLVESGGGLVKPGGSLRLSCAASGFTFSSYAMSWVRQAPGKGLEWVASISKGGNTYYPDSVKGRFTISRDNAKNSLYLQMNSLRAEDTAVYYCARGWGDYGWFAYWGQVTLVTVSSASTKGPSVFPLAPSSKSTSGGTAALGCLVKDYFPEPVTVSWNSGALTSGVHTFPAVLQSSGLYSLSSVVTVPSSSLGTQTYICNVNHKPSNTKVDKKVEPKSCDKTHTCPPCPAPEAAGGPSVFLFPPKPKDTLYITREPEVTCVVVSVSHEDPEVKFNWYVDGVEVHNAKTKPREEQYNSTYRVVSVLTVLHQDWLNGKEYKCKVSNKALPAPIEKTISKAKGQPREPQVYVYPPSREEMTKNQVSLTCLVKGFYPSDIAVEWESNGQPENNYKTTPPVLDSDGSFALVSKLTVDKSRWQQGNVFSCSVMHEALHNHYTQKSLSLSPGGGAGGAQVQLVESGGGVVQPGRSLRLSCAASGFTFSSYGMHWVRQAPGKGLEWVAIISYDGSNKHYADSVKGRFTISRDNSKNTLYLQMNSLRAEDTAVYYCARAPSSFYFDYWGQGTLVTVSSGTEGKSSGSGSESKSTDIVMTQSPDSLAVSLGERATINCKSSQSVLFSSNNKNYLAWYQQKPGQPPKLLIYWASTRESGVPDRFSGSGSGTDFTLTISSLQAEDVAVYYCQQYYSTPPTFGQGTKVVIK light: DIQMTQSPSSLSASVGDRVTITCKASQDINRYLNWFQQKPGKAPKTLIYRANRLLDGVPSRFSGSGSGTDFTLTISSLQPEDFATYYCQQYDEFPLTFGQGTKLEIKRTVAAPSVFIFPPSDEQLKSGTASVVCLLNNFYPREAKVQWKVDNALQSGNSQESVTEQDSKDSTYSLSSTLTLSKADYEKHKVYACEVTHQGLSSPVTKSFNRGEC heavy 2: EVQLVESGGGLVKPGGSLRLSCAASGFTFSSYAMSWVRQAPGKGLEWVASISKGGNTYYPDSVKGRFTISRDNAKNSLYLQMNSLRAEDTAVYYCARGWGDYGWFAYWGQVTLVTVSSASTKGPSVFPLAPSSKSTSGGTAALGCLVKDYFPEPVTVSWNSGALTSGVHTFPAVLQSSGLYSLSSVVTVPSSSLGTQTYICNVNHKPSNTKVDKKVEPKSCDKTHTCPPCPAPEAAGGPSVFLFPPKPKDTLYITREPEVTCVVVSVSHEDPEVKFNWYVDGVEVHNAKTKPREEQYNSTYRVVSVLTVLHQDWLNGKEYKCKVSNKALPAPIEKTISKAKGQPREPQVYVLPPSREEMTKNQVSLLCLVKGFYPSDIAVEWESNGQPENNYLTWPPVLDSDGSFFLYSKLTVDKSRWQQGNVFSCSVMHEALHNHYTQKSLSLSPG | 3.15 nM | 0.00138 s⁻¹ | 439000 M⁻¹ s⁻¹ |
| BBBB1065 (bispecific antibody, also called tripod mAb Anti-Tau IgG1 with C98hc4) heavy 1: EVQLVESGGGLVKPGGSLRLSCAASGFTFSSYAMSWVRQAPGKGLEWVASISKGGNTYYPDSVKGRFTISRDNAKNSLYLQMNSLRAEDTAVYYCARGWGDYGWFAYWGQVTLVTVSSASTKGPSVFPLAPSSKSTSGGTAALGCLVKDYFPEPVTVSWNSGALTSGVHTFPAVLQSSGLYSLSSVVTVPSSSLGTQTYICNVNHKPSNTKVDKKVEPKSCDKTHTCPPCPAPELLGGPSVFLFPPKPKDTLMISRTPEVTCVVVDVSHEDPEVKFNWYVDGVEVHNAKTKPREEQYNSTYRVVSVLTVLHQDWLNGKEYKCKVSNKALPAPIEKTISKAKGQPREPQVYVYPPSREEMTKNQVSLTCLVKGFYPSDIAVEWESNGQPENNYKTTPPVLDSDGSFALVSKLTVDKSRWQQGNVFSCSVMHEALHNHYTQKSLSLSPGGGAGGAQVQLVESGGGVVQPGRSLRLSCAASGFTFSSYGMHWVRQAPGKGLEWVAIISYDGSNKHYADSVKGRFTISRDNSKNTLYLQMNSLRAEDTAVYYCARAPSSFYFDYWGQGTLVTVSSGTEGKSSGSGSESKSTDIVMTQSPDSLAVSLGERATINCKSSQSVLFSSNNKNYLAWYQQKPGQPPKLLIYWASTRESGVPDRFSGSGSGTDFTLTISSLQAEDVAVYYCQQYYSTPPTFGQGTKVVIK light: DIQMTQSPSSLSASVGDRVTITCKASQDINRYLNWFQQKPGKAPKTLIYRANRLLDGVPSRFSGSGSGTDFTLTISSLQPEDFATYYCQQYDEFPLTFGQGTKLEIKRTVAAPSVFIFPPSDEQLKSGTASVVCLLNNFYPREAKVQWKVDNALQSGNSQESVTEQDSKDSTYSLSSTLTLSKADYEKHKVYACEVTHQGLSSPVTKSFNRGEC heavy 2: EVQLVESGGGLVKPGGSLRLSCAASGFTFSSYAMSWVRQAPGKGLEWVASISKGGNTYYPDSVKGRFTISRDNAKNSLYLQMNSLRAEDTAVYYCARGWGDYGWFAYWGQVTLVTVSSASTKGPSVFPLAPSSKSTSGGTAALGCLVKDYFPEPVTVSWNSGALTSGVHTFPAVLQSSGLYSLSSVVTVPSSSLGTQTYICNVNHKPSNTKVDKKVEPKSCDKTHTCPPCPAPELLGGPSVFLFPPKPKDTLMISRTPEVTCVVVDVSHEDPEVKFNWYVDGVEVHNAKTKPREEQYNSTYRVVSVLTVLHQDWLNGKEYKCKVSNKALPAPIEKTISKAKGQPREPQVYVLPPSREEMTKNQVSLLCLVKGFYPSDIAVEWESNGQPENNYLTWPPVLDSDGSFFLYSKLTVDKSRWQQGNVFSCSVMHEALHNHYTQKSLSLSPG | 2.96 nM | 0.00139 s⁻¹ | 470000 M⁻¹ s⁻¹ |
| BBBB1070 (bispecific antibody, human IgG1, kappa, L234A L235A, also called tripod mAb Anti-Tau IgG1 AAS YTE with C98hc5) heavy 1: EVQLVESGGGLVKPGGSLRLSCAASGFTFSSYAMSWVRQAPGKGLEWVASISKGGNTYYPDSVKGRFTISRDNAKNSLYLQMNSLRAEDTAVYYCARGWGDYGWFAYWGQVTLVTVSSASTKGPSVFPLAPSSKSTSGGTAALGCLVKDYFPEPVTVSWNSGALTSGVHTFPAVLQSSGLYSLSSVVTVPSSSLGTQTYICNVNHKPSNTKVDKKVEPKSCDKTHTCPPCPAPEAAGGPSVFLFPPKPKDTLYITREPEVTCVVVSVSHEDPEVKFNWYVDGVEVHNAKTKPREEQYNSTYRVVSVLTVLHQDWLNGKEYKCKVSNKALPAPIEKTISKAKGQPREPQVYVYPPSREEMTKNQVSLTCLVKGFYPSDIAVEWESNGQPENNYKTTPPVLDSDGSFALVSKLTVDKSRWQQGNVFSCSVMHEALHNHYTQKSLSLSPGGGAGGAQVQLQESGPGLVKPSETLSLTCTVSGGSISSSYWSWIRQPPGKGLEWIGYIYNSGSTNYNPSLKSRVTISVDTSKNQFSLKLSSVTAADTAVYYCARETYYFDYWGQGTLVTVSSGTEGKSSGSGSESKSTDIVMTQSQKFMSTSVGDRVSVTCKASQNVGINVAWYQKKPGQPPKALIYSAAYRYSGVPDRFTGSGSGTDFTLTISNVQSEDLAEYFCQQYNSYPLTFGSGTKLEIK light: DIQMTQSPSSLSASVGDRVTITCKASQDINRYLNWFQQKPGKAPKTLIYRANRLLDGVPSRFSGSGSGTDFTLTISSLQPEDFATYYCQQYDEFPLTFGQGTKLEIKRTVAAPSVFIFPPSDEQLKSGTASVVCLLNNFYPREAKVQWKVDNALQSGNSQESVTEQDSKDSTYSLSSTLTLSKADYEKHKVYACEVTHQGLSSPVTKSFNRGEC heavy 2: EVQLVESGGGLVKPGGSLRLSCAASGFTFSSYAMSWVRQAPGKGLEWVASISKGGNTYYPDSVKGRFTISRDNAKNSLYLQMNSLRAEDTAVYYCARGWGDYGWFAYWGQVTLVTVSSASTKGPSVFPLAPSSKSTSGGTAALGCLVKDYFPEPVTVSWNSGALTSGVHTFPAVLQSSGLYSLSSVVTVPSSSLGTQTYICNVNHKPSNTKVDKKVEPKSCDKTHTCPPCPAPEAAGGPSVFLFPPKPKDTLYITREPEVTCVVVSVSHEDPEVKFNWYVDGVEVHNAKTKPREEQYNSTYRVVSVLTVLHQDWLNGKEYKCKVSNKALPAPIEKTISKAKGQPREPQVYVLPPSREEMTKNQVSLLCLVKGFYPSDIAVEWESNGQPENNYLTWPPVLDSDGSFFLYSKLTVDKSRWQQGNVFSCSVMHEALHNHYTQKSLSLSPG | 118 nM | 0.00648 s⁻¹ | 55700 M⁻¹ s⁻¹ |
| BBBB1061 (bispecific antibody, human IgG1, kappa, L234A L235A, also called tripod mAb Anti-Tau IgG1 AAS YTE with C98hc2) heavy 1: EVQLVESGGGLVKPGGSLRLSCAASGFTFSSYAMSWVRQAPGKGLEWVASISKGGNTYYPDSVKGRFTISRDNAKNSLYLQMNSLRAEDTAVYYCARGWGDYGWFAYWGQVTLVTVSSASTKGPSVFPLAPSSKSTSGGTAALGCLVKDYFPEPVTVSWNSGALTSGVHTFPAVLQSSGLYSLSSVVTVPSSSLGTQTYICNVNHKPSNTKVDKKVEPKSCDKTHTCPPCPAPEAAGGPSVFLFPPKPKDTLYITREPEVTCVVVSVSHEDPEVKFNWYVDGVEVHNAKTKPREEQYNSTYRVVSVLTVLHQDWLNGKEYKCKVSNKALPAPIEKTISKAKGQPREPQVYVYPPSREEMTKNQVSLTCLVKGFYPSDIAVEWESNGQPENNYKTTPPVLDSDGSFALVSKLTVDKSRWQQGNVFSCSVMHEALHNHYTQKSLSLSPGGGAGGAQVQLVESGGGLVQAGGSLRLSCAASGRAFSSNGMGWFRQAPGKEREFVATISCSGTSTYYADSVKGRFTISRDNAKNTVYLQMNSLKPEDTAVYFCAADTRHCMGYTKDEGYAYWGQGTQVTVSS light: DIQMTQSPSSLSASVGDRVTITCKASQDINRYLNWFQQKPGKAPKTLIYRANRLLDGVPSRFSGSGSGTDFTLTISSLQPEDFATYYCQQYDEFPLTFGQGTKLEIKRTVAAPSVFIFPPSDEQLKSGTASVVCLLNNFYPREAKVQWKVDNALQSGNSQESVTEQDSKDSTYSLSSTLTLSKADYEKHKVYACEVTHQGLSSPVTKSFNRGEC heavy 2: EVQLVESGGGLVKPGGSLRLSCAASGFTFSSYAMSWVRQAPGKGLEWVASISKGGNTYYPDSVKGRFTISRDNAKNSLYLQMNSLRAEDTAVYYCARGWGDYGWFAYWGQVTLVTVSSASTKGPSVFPLAPSSKSTSGGTAALGCLVKDYFPEPVTVSWNSGALTSGVHTFPAVLQSSGLYSLSSVVTVPSSSLGTQTYICNVNHKPSNTKVDKKVEPKSCDKTHTCPPCPAPEAAGGPSVFLFPPKPKDTLYITREPEVTCVVVSVSHEDPEVKFNWYVDGVEVHNAKTKPREEQYNSTYRVVSVLTVLHQDWLNGKEYKCKVSNKALPAPIEKTISKAKGQPREPQVYVLPPSREEMTKNQVSLLCLVKGFYPSDIAVEWESNGQPENNYLTWPPVLDSDGSFFLYSKLTVDKSRWQQGNVFSCSVMHEALHNHYTQKSLSLSPG | 1.46 nM | 0.00135 s⁻¹ | 935000 M⁻¹ s⁻¹ |
